The values below come from article PMC8351524 (2021).

The test addresses T1, APOC2 (Homo sapiens, UniProt P02655).
T1 chain: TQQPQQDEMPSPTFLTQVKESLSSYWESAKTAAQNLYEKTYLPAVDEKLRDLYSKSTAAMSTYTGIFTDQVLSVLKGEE
Description: biolayer interferometry. On the technique in general: In BLI a coated tip is dipped into the sample, and binding shifts an interference pattern.

Broadly, the Kd is the equilibrium constant for the complex coming apart. A low value points to higher affinity.

B1: CD36 (protein)
chain: GCDRNCGLIAGAVIGAVLAVFGGILMPVGDLLIQKTIKKQVVLEEGTIAFKNWVKTGTEVYRQFWIFDVQNPQEVMMNSSNIQVKQRGPYTYRVRFLAKENVTQDAEDNTVSFLQPNGAIFEPSLSVGTEADNFTVLNLAVAAASHIYQNQFVQMILNSLINKSKSSMFQVRTLRELLWGYRDPFLSLVPYPVTTTVGLFYPYNNTADGVYKVFNGKDNISKVAIIDTYKGKRNLSYWESHCDMINGTDAASFPPFVEKSQVLQFFSSDICRSIYAVFESDVNLKGIPVYRFVLPSKAFASPVENPDNYCFCTEKIISKNCTSYGVLDISKCKEGRPVYISLPHFLYASPDVSEPIDGLNPNEEEHRTYLDIEPITGFTLQFAKRLQVNLLVKPSEKIQVLKNLKRNYIVPILWLNETGTIGDEKANMFRSQVTGKINLLGLIEMILLSVGVVMFVAFMISYCACRSKTIK
In the case of B1, binding was characterised by a dissociation constant (Kd) of 128 nM.
